This sample holds only a part of the variants without activity.
What was measured:
biotinyl-Leu-oxazolone = experiment: self-aminoacylation, catalytic enhancement (BLO) (fold over background); higher = more active; k-Seq, kA / k0A0; sequences stand for … in GGGAAUGGAUCCACAUCUACGAAUUC…UUCACUGCAGACUUGACGAAGCUG
Summary of the method: (§1)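 The uncatalyzed rate is the low-activity peak of a bimodal Gaussian fit, and catalytic enhancement is median kA divided by it. The kA values came from pseudo-first-order fits, with 1000 bootstraps, of per-sequence fraction reacted measured by streptavidin capture, triplicate qPCR and Illumina sequencing. Mutagenized RNA pools with a 21-nt variable region (0.43 μM) were reacted with each biotinyl-aminoacyl-oxazolone at 2–1250 μM in 50 μL HEPES/NaCl/KCl/MgCl2/CaCl2 buffer with 5% acetonitrile, pH 6.9–7.0, for 90 minutes at room temperature.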

biotinyl-Val-oxazolone = experiment: self-aminoacylation, catalytic enhancement (BVO) (fold over background); higher = more active; k-Seq, kA / k0A0; sequences stand for … in GGGAAUGGAUCCACAUCUACGAAUUC…UUCACUGCAGACUUGACGAAGCUG
Summary of the method: as §1

biotinyl-Met-oxazolone = experiment: self-aminoacylation, catalytic enhancement (BMO) (fold over background); higher = more active; k-Seq, kA / k0A0; sequences stand for … in GGGAAUGGAUCCACAUCUACGAAUUC…UUCACUGCAGACUUGACGAAGCUG
Summary of the method: as §1

biotinyl-Ile-oxazolone = experiment: self-aminoacylation, catalytic enhancement (BIO) (fold over background); higher = more active; k-Seq, kA / k0A0; sequences stand for … in GGGAAUGGAUCCACAUCUACGAAUUC…UUCACUGCAGACUUGACGAAGCUG
Summary of the method: as §1

biotinyl-Phe-oxazolone = experiment: self-aminoacylation, catalytic enhancement (BFO) (fold over background); higher = more active; k-Seq, kA / k0A0; sequences stand for … in GGGAAUGGAUCCACAUCUACGAAUUC…UUCACUGCAGACUUGACGAAGCUG
Summary of the method: as §1

biotinyl-Trp-oxazolone = experiment: self-aminoacylation, catalytic enhancement (BWO) (fold over background); higher = more active; k-Seq, kA / k0A0; sequences stand for … in GGGAAUGGAUCCACAUCUACGAAUUC…UUCACUGCAGACUUGACGAAGCUG
Summary of the method: as §1

Sequence | self-aminoacylation (biotinyl-Leu-oxazolone) | self-aminoacylation (biotinyl-Val-oxazolone) | self-aminoacylation (biotinyl-Met-oxazolone) | self-aminoacylation (biotinyl-Ile-oxazolone) | self-aminoacylation (biotinyl-Phe-oxazolone) | self-aminoacylation (biotinyl-Trp-oxazolone)
AAGUUUGCUAAAAGCCGCAAG [Fam3.1 aminoacylation ribozyme variant] | 0.63 | 0.689 | 0.604 | 0.613 | 1.42 | 1.08
CCAUACUUCCAGCAAUCGGUC [Fam1B.1 aminoacylation ribozyme variant] | 1.1 | 1.39 | 1.06 | 1.45 | 0.952 | 0.815
GUUACCCUGGUCAGCGAGUGA [Fam2.1 aminoacylation ribozyme variant] | 6.76 | 4.05 | 6.72 | 4.8 | 42.9 | 7.95
CCACACUUAAAGCACUCGGUC [Fam1B.1 aminoacylation ribozyme variant] | 0.924 | 1.11 | 0.856 | 1.16 | 0.788 | 0.732
UUUCACGUAGGUCAUCGGGUG [Fam2.2 aminoacylation ribozyme variant] | 3.88 | 4.25 | 4.24 | 2.89 | 32.2 | 4.06
CAACACUUCAAGCAAUGGGUC [Fam1B.1 aminoacylation ribozyme variant] | 0.882 | 0.664 | 0.834 | 0.858 | 0.677 | 0.833
CCACUCUUCAAGCACUCGGUC [Fam1B.1 aminoacylation ribozyme variant] | 1.04 | 0.928 | 1.15 | 1.02 | 0.56 | 0.816
UUUACCCUGGUCACCGAGUGA [Fam2.1 aminoacylation ribozyme variant] | 7.47 | 4.12 | 7.62 | 3.3 | 44.3 | 8
AUGCACCCAGGUCAUCGGGUG [Fam2.2 aminoacylation ribozyme variant] | 4.35 | 3.89 | 3.42 | 3.29 | 21 | 5.32
CCACACUCCAAGCAGUCGGUC [Fam1B.1 aminoacylation ribozyme variant] | 1.11 | 1.49 | 1.04 | 1.32 | 0.733 | 1.04
CUGCUUCAAACAAUCGGCCUG [Fam1A.1 aminoacylation ribozyme variant] | 6.94 | 3.35 | 3.69 | 3.07 | 449 | 162

— the supplement of paper PMC9233669
